This note sets out measurements from PMC6318280, “A novel m^6A reader Prrc2a controls oligodendroglial specification and myelination” (Cell Research, 2018).

This assay addresses T1, FLAG-Prrc2a-P2 (residue 761-1408) (mouse, UniProt Q7TSC1 761-1408).
T1 construct: Prrc2a p2 fragment, residue 761-1408, amplified from a mouse cDNA library; holds the region rich in glycine, arginine and glutamic acid (GRE domain); the legend of the pull-down names FLAG-Prrc2a-P2 beside P1, P3 and P4, which fits the proteins purified from HEK293T cells; also called P2 fragment; GRE domain; source: HEK293T, transfected, purified (FLAG beads, eluted with 3xFLAG peptide)
The assay is described as follows: pull-down; in vitro GST pull-down with purified GST-YTHDF2 and purified FLAG-Prrc2a fragments. To be noted: both partners purified.

T1 sequence (Q7TSC1 761-1408): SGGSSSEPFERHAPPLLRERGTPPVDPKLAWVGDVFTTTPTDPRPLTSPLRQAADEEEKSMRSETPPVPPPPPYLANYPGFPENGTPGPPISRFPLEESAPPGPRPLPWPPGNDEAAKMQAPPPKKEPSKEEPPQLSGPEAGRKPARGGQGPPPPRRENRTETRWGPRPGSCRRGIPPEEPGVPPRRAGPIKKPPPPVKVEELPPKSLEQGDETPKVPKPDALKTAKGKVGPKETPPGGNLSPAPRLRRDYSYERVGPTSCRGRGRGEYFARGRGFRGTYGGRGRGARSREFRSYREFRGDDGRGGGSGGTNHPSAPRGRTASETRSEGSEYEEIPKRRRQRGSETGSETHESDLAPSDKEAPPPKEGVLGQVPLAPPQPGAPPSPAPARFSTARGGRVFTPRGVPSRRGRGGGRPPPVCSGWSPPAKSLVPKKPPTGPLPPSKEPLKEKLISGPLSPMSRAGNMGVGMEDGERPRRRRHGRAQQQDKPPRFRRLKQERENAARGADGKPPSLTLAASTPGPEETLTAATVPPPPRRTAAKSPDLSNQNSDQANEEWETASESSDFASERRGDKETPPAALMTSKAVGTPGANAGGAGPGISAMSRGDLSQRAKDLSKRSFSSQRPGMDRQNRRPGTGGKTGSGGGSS

B1: GST-YTHDF2 (natural protein, human, UniProt Q9Y5A9 1-579, looked up)
chain: MSASSLLEQRPKGQGNKVQNGSVHQKDGLNDDDFEPYLSPQARPNNAYTAMSDSYLPSYYSPSIGFSYSLGEAAWSTGGDTAMPYLTSYGQLSNGEPHFLPDAMFGQPGALGSTPFLGQHGFNFFPSGIDFSAWGNNSSQGQSTQSSGYSSNYAYAPSSLGGAMIDGQSAFANETLNKAPGMNTIDQGMAALKLGSTEVASNVPKVVGSAVGSGSITSNIVASNSLPPATIAPPKPASWADIASKPAKQQPKLKTKNGIAGSSLPPPPIKHNMDIGTWDNKGPVAKAPSQALVQNIGQPTQGSPQPVGQQANNSPPVAQASVGQQTQPLPPPPPQPAQLSVQQQAAQPTRWVAPRNRGSGFGHNGVDGNGVGQSQAGSGSTPSEPHPVLEKLRSINNYNPKDFDWNLKHGRVFIIKSYSEDDIHRSIKYNIWCSTEHGNKRLDAAYRSMNGKGPVYLLFSVNGSGHFCGVAEMKSAVDYNTCAGVWSQDKWKGRFDVRWIFVKDVPNSQLRHIRLENNENKPVTNSRDTQEVPLEKAKQVLKIIASYKHTTSIFDDFSHYEKRQEEEESVKKERQGRGK
notes: human YTHDF2 gene subcloned into a pGEX expression vector with GST-tag; also called recombinant GST-YTHDF2; source: E. coli BL21 (DE3), purified (FPLC, Profinity GST cartridge)
As to B1, the binding result is “binds”.
